Drawing on US6133009, this text covers number of cleavage fragments for one substance.

The data set concerns HpyCH4V restriction endonuclease (Helicobacter pylori CH4). In words: cleavage_in_vitro. The conditions noted are these: fragments of 576, 498, 441, 335, 315, 312, 296, 244, 205 bp and 12 smaller than 200 bp.

On to pBR322 DNA, for which the number of cleavage fragments stood at 21 fragments.
